Source: US20040115622A1

Experiments:
[1] = molecular target: HLA-DR molecule encoded by the allele DRB1*0101 (human); assay: competition ELISA vs biotinylated HA 306-318
[2] = molecular target: HLA-DR molecule encoded by the allele DRB1*0401 (human); assay: competition ELISA vs biotinylated HA 306-318
[3] = molecular target: HLA-DR molecule encoded by the allele DRB5*0101 (human); assay: competition ELISA vs biotinylated HA 306-318
[4] = molecular target: HLA-DR molecule encoded by the allele DRB4*0101 (human); assay: competition ELISA vs biotinylated E2/E168
[5] = molecular target: HLA-DR molecule encoded by the allele DRB1*1501 (human); assay: competition ELISA vs biotinylated A3 152-166
[6] = molecular target: HLA-DR molecule encoded by the allele DRB1*0701 (human); assay: competition ELISA vs biotinylated YKL

Substance | IC50 [1] | IC50 [2] | IC50 [3] | IC50 [4] | IC50 [5] | IC50 [6]
Nef4.6 peptide (positions 79-93 of the HIV-1 Nef protein, Bru strain) (from UniProt P03406 79-93) (peptide; other documents disagree on this pair) | 55 nM | 150 nM | 45 nM |  |  | 
Nef4.3 peptide (positions 72-86 of the HIV-1 Nef protein, Bru strain) (from UniProt P03406 72-86) (peptide; other documents disagree on this pair) | 2000 nM | 2000 nM | 1500 nM | 2430 nM | 1930 nM | 
Nef4 peptide (positions 66-94 of the HIV-1 Nef protein, Bru strain) (from UniProt P03406 66-94) (peptide; other documents disagree on this pair) | 55 nM | 45 nM | 12 nM | 225 nM | 750 nM | 5000 nM
Nef4.5 peptide (positions 77-91 of the HIV-1 Nef protein, Bru strain) (from UniProt P03406 77-91) (peptide; other documents disagree on this pair) | 12 nM | 60 nM | 28 nM |  | 1330 nM | 
Nef4.1 peptide (positions 66-80 of the HIV-1 Nef protein, Bru strain) (from UniProt P03406 66-80) (peptide; other documents disagree on this pair) | 1500 nM |  |  |  |  | 
Nef4.2 peptide (positions 68-82 of the HIV-1 Nef protein, Bru strain) (from UniProt P03406 68-82) (peptide; other documents disagree on this pair) | 250 nM |  |  |  | 7000 nM | 
Nef4.4 peptide (positions 74-88 of the HIV-1 Nef protein, Bru strain) (from UniProt P03406 74-88) (peptide; other documents disagree on this pair) | 350 nM | 225 nM | 700 nM | 550 nM | 667 nM | 
